Assay results published in the domain aggregation screens of Martell et al. (2025).
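Note: 20 min heating vs room temperature control held 20 min.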

Experiment: soluble fraction after stress (log2 fold change); higher = more stays soluble; pooled small domains, quantitative proteomics
Settings: stress: 75 degC
In the case of “HMTKYEGLSLDLIIDGVVITHNLKLAKLDMNWLLDRLKENGWDNPKDIFYAYIDTAGNFRFQPKLKASRTR”, the “soluble fraction (log2)” value is reported as 0.473. With “HMTKYREVLRMSAGGFSQRVIASTLSISRNTVASTLKRAREQNLDWEAVEQQRLSEKDIANLLFP” the “soluble fraction (log2)” value was -3.22. For “HMTLAEEFNNLNGKVITRETLESLLVKAEKEQNSTISNRIRKVLQAYTADTFLIELQHTESA”, the “soluble fraction (log2)” value was -0.0241. In the case of “HMTLALKQGSTGSTVKQVQQKLKNWGYYSGAVDGIFGSGTRKAVVLFQKRNKLTADGIVGSKTLEALGIYV”, the “soluble fraction (log2)” value is reported as -2.36. In the case of “HMTLDDSIALGRSLLDKGLMDFGTNLANLAEDKLRDFLSQQRYENLDDLFADIARGNRLPMFTAQQLLS”, the “soluble fraction (log2)” value is reported as -0.0666. For “HMTLDVALSKEIKYMLKEEHYLPGDKLPSERKLAELFHVQRLTVRGALNLLLQDKTIISKPRSGYYVAPKR”, the “soluble fraction (log2)” value was -2.88. With “HMTLFDESGYTARELEIIREVANGLSNKEIADKLFLSEGTVKNYITGILAKENLSHRTALAVYYLTGRK” the “soluble fraction (log2)” value was -1.83. With “HMTLHEAMEKLFRQVGRPMTTKEIAEKLNENKWYQKADGSPLTPYQIYGRAKNYPALFHREGSIIYLKGS” the “soluble fraction (log2)” value was -0.547. For “HMTLKTISLTEAIKNTNEGNYSKLVLDGNELTITEQGKETPSLKTYTEPGTSLKEQGFDLSKVEFEAREQS”, the “soluble fraction (log2)” value was -0.0223. For “HMTLNQEELMGKTEAILFAGGEPVSLDRIAQVLGVRTPVIDSIVSALQEKYNTPTSGIQLMRL”, the “soluble fraction (log2)” value was -0.267. In the case of “HMTLPELTDRELQILQLLSVGNSSQKIAKQLNISTHTVSTHRKQLLRKLGAQNGADLIRRAQKLGIL”, the “soluble fraction (log2)” value is reported as -1.78. In the case of “HMTLQEFYARVGGDYNATLSRLPSEALVKKFILKYPGDPSFAQLKDALAAQDWELAFRASHTLKGVAQN”, the “soluble fraction (log2)” value is reported as -1.9. In the case of “HMTLSAPMPGTVLKIHVKEGQRVRKGQTLVVLEAMKMEHRIQAPKAGEVTNLHFSEGDRVDMGEILVEIG”, the “soluble fraction (log2)” value is reported as -2.34. For “HMTLSDDEFEIIKSLIIDTLKEEALTINALTKKINHKEAKTIQVIRFLLDNGLVAENNLMKLFVI”, the “soluble fraction (log2)” value was -1.43. With “HMTLTIEDQLRRLRARLGRGRAFLFSDVLVNPHDRTEIAVTLLALLELIKRREAQASQSYLFGPIEVAAA” the “soluble fraction (log2)” value was -2.01. For “HMTLTLEQAAAIKNSEGEQYGKIESERLAAMSVQIDKAIKSNGHDPNKKADLERKLDAIGIILNARAAG”, the “soluble fraction (log2)” value was 0.222. With “HMTLVKRSAMVTAWSEFAGGRVNSKLIALQNGKAGDWIELENPQSGRKLRGRVQSDGSVRLGS” the “soluble fraction (log2)” value was -1.07. For “HMTLYITDQMRKILDYVATNQEIDEKAVMDLLSIQRTRAYLIAKKMTDIGLLQVQGRGKTKTYRLAARS”, the “soluble fraction (log2)” value was -2.08. In the case of “HMTLYQIGDKVVHPMHGAGVIDSVVQRKVSGQVQEFYLLKLSVGNMVVMVPTDNTGEIGMRP”, the “soluble fraction (log2)” value is reported as -2.52. With “HMTMEQAEFLSRQFNLLSQRLNDPSIEWQDIADLRSEYTGEDEHRDTIRKGAKLFYEYLEAGWIKN” the “soluble fraction (log2)” value was -0.76. For “HMTMKNPNGYGSVINLGKGRRRPWAARVTTGLVYDEKKDKLIQRYKYIGYADTRKEAHQILAEYNAGLPI”, the “soluble fraction (log2)” value was -1.76. For “HMTMMTFGEKLQNARKGAGLSQEQLAEKLSVSRSAVAKWENDNGMPDIDNLKAIAQLLDVSIDYLLEN”, the “soluble fraction (log2)” value was 0.812. For “HMTMNLIEIGHVVGARRAELGLTQAQLAHLSGLSRQTVVGLEKGTLSDLGVNRVGQVMAVLGLDS”, the “soluble fraction (log2)” value was -0.555. For “HMTMPDFGYMRVSYAEARRQLQAIGISVSTIEKVEDPSHTSATGDMVISQYPAAGSKIEGTVTLYVSVAS”, the “soluble fraction (log2)” value was -3.65. With “HMTMSFSELLRGLRKSRGMSQAELATAVGLSQAQVSQIETGKLLPSPELIEKLAALYGIALGSA” the “soluble fraction (log2)” value was 0.279. In the case of “HMTMTKELGQRIRAERTARKMTQEELAERADLHPTYIGQVERGEKSLTIASLEKIVEGLGISFSDLFEN”, the “soluble fraction (log2)” value is reported as 0.244. In the case of “HMTMVKYRYLTDGELKEFEEEFKHFLIANGLHSEEWERLNNEDSNKAIEVVALFSNLILDKV”, the “soluble fraction (log2)” value is reported as -1.81. With “HMTMVLPDAARDKLKAIGLSIEHVEPSPVKDIFTVISREGVSYVSKDGDYIFTGSLFHVKGKDVVNTTEQA” the “soluble fraction (log2)” value was 0.0464. In the case of “HMTNEAFITPSVLEWAIKRAGVSAESIHKKAEQWVSGKARPTFKQAVDIAKTLQIPFGYLWLKEPPKEQ”, the “soluble fraction (log2)” value is reported as -0.949. In the case of “HMTNELVNVNKLLDVMEPSIPLTALEIMTRLGIKSKETLRNSYLNPAIKLGMINLTSPLKPTSKNQMYYK”, the “soluble fraction (log2)” value is reported as -1.02. In the case of “HMTNKSKQRRNEILRASQELFNKKGFHDTSINDIMRRVGAAKGVFYYYFETKDQILDTLIEQHIA”, the “soluble fraction (log2)” value is reported as -0.978. For “HMTNLTPKQQQIYQFIRASTQANGYPPTLREIGQQVGVRSPSTVKYHLDNLRTLGLLHWDGGKTRSITLP”, the “soluble fraction (log2)” value was -0.77. With “HMTNNFIVTWRNYNEEVLEIDVNVKKGSMPKYNGKTPEREGYQFVGWDPEITEVTKDITYVAQFM” the “soluble fraction (log2)” value was -1.92. With “HMTNQKEITYSQFRQELDQGSIKSVSLQGSRIRGTYVDGGISFRTLAPNDADLIPSLMKHKVDIQVLPED” the “soluble fraction (log2)” value was 0.292. For “HMTNSTGWSKSGGTQVTIREGETIYNLSRRYGVPAKSIMEANGIADATAVRAGQRISIPTYSY”, the “soluble fraction (log2)” value was -0.0378. For “HMTNVDELIGKEAVVVKEIRPYTTGEVKLDGKVWRAMSESKQVYKVDEIVTVLRIEGVTMII”, the “soluble fraction (log2)” value was -2.46. For “HMTNVETLVRMRLRSIRTTLGYSLDEIAERSNLSASTVSRIETGKRALSIDVLVPLAAALQVSVDDLLRAE”, the “soluble fraction (log2)” value was -2.92. For “HMTNYREILRLRSLGLNHSRIAESMGISRPTVIAALQRAQTQELNWQAAESLSDIDLAQRLNP”, the “soluble fraction (log2)” value was -0.847. In the case of “HMTNYYTVTFKEGDTVLKEVSVHSGDGVPYAVAPKRDDIVGWSYNGNTYTTDLNTLKIKKEVTFTAVT”, the “soluble fraction (log2)” value is reported as 0.235. For “HMTPAIEKTAVIVFINGKKYYVHTVKSGETLYSIAKAYKVDEKVIKEHNPNVADGLRIDQTVKIPVPEQVK”, the “soluble fraction (log2)” value was -0.549. In the case of “HMTPAPHESLTDREMEVLKLLAQGLSNQEIADKLFIGVKTVKYHITNIFSKLGVEDRTQAAIYAHKQGLA”, the “soluble fraction (log2)” value is reported as -0.475. In the case of “HMTPDDSYIAGYAAGILKHQFLIDAPELIVRNGTITIPADKVSAGDRAKVVQILSGIPGVTRVEVG”, the “soluble fraction (log2)” value is reported as 0.224. With “HMTPDVHRGDTITVSLRAGAIRVRVPAKALEEGAAGGEIRVVNLTGGREYRVRVTGPGTAEAIL” the “soluble fraction (log2)” value was -0.966. With “HMTPEGAYTVSEIVKVINSFADEYKVPFTMHVSGYKYEEIAQQLGLPIGTVKSRIFFARKRLQELLN” the “soluble fraction (log2)” value was -2.45. With “HMTPEPVTMYITSLTEFRSEPNTEAGIIKLLDAYEEVEMIESRGEWSKISYGDQIGYILSEFLTAENRT” the “soluble fraction (log2)” value was -0.85. With “HMTPILTAQQVVAALQAAGYRNVHDLEFEHGRWEADAVNAAGQRVELHINPYTGAIERERLD” the “soluble fraction (log2)” value was 0.584. For “HMTPKTSVPKPGQTVVVRKGDTIYALARIHDITPADLIAWNRLDNPSQIYPGQVIRLYPQGA”, the “soluble fraction (log2)” value was -0.563. In the case of “HMTPKVDLTVAEDGSASAVIAGLRVEIDAAGKVTAVAPADGTTDLSSVAPEAVKEAMDNALAAYTASKG”, the “soluble fraction (log2)” value is reported as 0.12. With “HMTPLFNQGEVLKGFVLQTGTNNRVLLQIGTAKVLADAQTPLKAGEQLTLRVEATGPRTVLQILG” the “soluble fraction (log2)” value was -0.461. For “HMTPLILTAQEGGERLDAFVASQVEDLTRSAAQRLLEQGAVTSGGKPLKKNAKTTPGMVVEVLLPDPQ”, the “soluble fraction (log2)” value was -0.113. In the case of “HMTPPPTNSREWMEWGISHGLDANLDRSGQVVFYTDDRVVADAAELSGADLERDNMGQFVIYTGAYDKG”, the “soluble fraction (log2)” value is reported as 0.0155. With “HMTPQEQWNNAYLLAKDYYDANGNLDIDEKYKTKDGFELGSWLTTQRNVYKRGKLSPEKTKKLEEIGISF” the “soluble fraction (log2)” value was 0.0776. In the case of “HMTPQGALDYSRNAKYLRDQVTAINYLKQARLSLNTTDANYRQTLEQINQAIAKHNQALQQAGVQSQQLAT”, the “soluble fraction (log2)” value is reported as -0.00591. With “HMTPTPQQNNILVGQTGTTLTRLAPMGKVRVGEVTAEAKTIDGYINPRQSVEVIGFENTVVIVRAV” the “soluble fraction (log2)” value was -0.748. For “HMTPVIINESGGDQDTRIEGLNDNNLLYVDASTDRVGVGVATPTQKLDVNGDVAISGGSLYLSQ”, the “soluble fraction (log2)” value was 0.183.
